Assay [1] has as its target T1, sMepS-6×His-C (soluble MepS without its lipoprotein signal peptide, C-terminal His-tag), P0AFV4.
T1 chain: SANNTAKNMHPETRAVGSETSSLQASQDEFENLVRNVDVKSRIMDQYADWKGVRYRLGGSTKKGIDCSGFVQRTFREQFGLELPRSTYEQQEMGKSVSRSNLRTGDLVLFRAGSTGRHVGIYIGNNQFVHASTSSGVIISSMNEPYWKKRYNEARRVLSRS
Kind of assay: ITC. Conditions: chain shown with the change.

Assay [2] addresses sMepS-6×His-C (soluble MepS without its lipoprotein signal peptide, C-terminal His-tag) (E. coli) (UniProt P0AFV4). Kind of assay: ITC; iTC200, 20 °C, 20 mM HEPES pH 7.5, 300 mM NaCl, 2 mM 2-mercaptoethanol; 23 µM sMepS or Prc in the cell, 230 µM sNlpI (alone or with equimolar Prc) in the syringe; one binding site model. (ITC needs no label: the signal is the heat of the interaction.)

For assay [3], the target named is Prc (full-length, C-terminal His-tag) (E. coli) (UniProt P23865). The assay is described as above.
For assay [4] the target is unchanged.

Prc (full-length, C-terminal His-tag) (E. coli), sequence (P23865 23-682 limits assumed): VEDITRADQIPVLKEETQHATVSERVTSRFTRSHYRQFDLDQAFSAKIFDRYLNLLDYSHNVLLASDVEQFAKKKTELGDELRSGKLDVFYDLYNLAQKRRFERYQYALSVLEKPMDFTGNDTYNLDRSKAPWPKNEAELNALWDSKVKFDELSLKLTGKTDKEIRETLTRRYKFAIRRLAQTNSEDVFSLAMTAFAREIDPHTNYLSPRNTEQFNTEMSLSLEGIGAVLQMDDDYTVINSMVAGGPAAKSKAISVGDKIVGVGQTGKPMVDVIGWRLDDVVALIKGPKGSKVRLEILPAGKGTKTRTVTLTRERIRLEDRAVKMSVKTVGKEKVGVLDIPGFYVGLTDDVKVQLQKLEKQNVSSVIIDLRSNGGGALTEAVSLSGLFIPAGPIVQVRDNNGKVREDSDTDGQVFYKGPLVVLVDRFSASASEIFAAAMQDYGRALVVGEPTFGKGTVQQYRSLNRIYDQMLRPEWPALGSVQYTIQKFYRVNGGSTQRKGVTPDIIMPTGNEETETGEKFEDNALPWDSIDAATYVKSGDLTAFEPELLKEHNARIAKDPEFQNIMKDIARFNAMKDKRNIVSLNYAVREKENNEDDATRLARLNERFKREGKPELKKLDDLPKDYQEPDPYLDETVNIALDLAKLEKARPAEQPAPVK

B1: sNlpI (soluble NlpI without its lipoprotein signal peptide), P0AFB1 A114W (protein)
chain: SNTSWRKSEVLAVPLQPTLQQEVILARMEQILASRALTDDERAQLLYERGVLYDSLGLRALARNDFSQALAIRPDMPEVFNYLGIYLTQAGNFDWAYEAFDSVLELDPTYNYAHLNRGIALYYGGRDKLAQDDLLAFYQDDPNDPFRSLWLYLAEQKLDEKQAKEVLKQHFEKSDKEQWGWNIVEFYLGNISEQTLMERLKADATDNTSLAEHLSETNFYLGKYYLSLGDLDSATALFKLAVANNVHNFVEHRYALLELSLLGQDQDDLAESDQQ
For orientation: Kd means the constant that tells how readily two partners part at equilibrium. High values mean a looser complex, low ones a tighter complex. B1 showed a Kd in assay [1] of 1450 nM.

B2: sNlpI (soluble NlpI without its lipoprotein signal peptide) (natural protein)
chain: SNTSWRKSEVLAVPLQPTLQQEVILARMEQILASRALTDDERAQLLYERGVLYDSLGLRALARNDFSQALAIRPDMPEVFNYLGIYLTQAGNFDAAYEAFDSVLELDPTYNYAHLNRGIALYYGGRDKLAQDDLLAFYQDDPNDPFRSLWLYLAEQKLDEKQAKEVLKQHFEKSDKEQWGWNIVEFYLGNISEQTLMERLKADATDNTSLAEHLSETNFYLGKYYLSLGDLDSATALFKLAVANNVHNFVEHRYALLELSLLGQDQDDLAESDQQ
B2: the results for the Kd in assay [2] and in assay [3] were 750 nM and below 10 nM, respectively. The melting temperature (T m) of Prc-sNlpI in thermal shift assay (Prc alone 40.1 °C) in assay [4] worked out at 53.6 °C.

These data come from publication PMC5686067.
